Several values for one entry are separate records, joined by “and”; a condition that tells them apart may be missing. Equal values may be shown once.
What was measured:
SARS-CoV PLP2 = SARS-CoV PLP2 (Severe acute respiratory syndrome coronavirus, UniProt P0C6U8)
[1] = system: T1, 18-mer Gly818-Ala819 site-containing oligopeptide NNVFRLKGGAPIKGVTFG
T1 sequence: NNVFRLKGGAPIKGVTFG

[2] = system: T2, 10-mer oligopeptide RLKGGAPIKG (five P residues, five P′ residues)
T2 sequence: RLKGGAPIKG

[3] = system: T3, 14-mer Gly818-Ala819 site-containing oligopeptide VFRLKGGAPIKGVT
T3 sequence: VFRLKGGAPIKGVT

[4] = system: T4, 10-mer oligopeptide FRLKGGAPIK (six P residues, four P′ residues)
T4 sequence: FRLKGGAPIK

[5] = system: 12-mer oligopeptide […] containing the Gly818-Ala819 cleavage site
[6] = system: T5, 11-mer Gly818-Ala819 site-containing oligopeptide VFRLKGGAPIK
T5 sequence: VFRLKGGAPIK

[7] = system: BCoV 12-mer peptide substrate (P6-P1′ FSLKGGA)
[8] = system: T6, 16-mer Gly818-Ala819 site-containing oligopeptide NVFRLKGGAPIKGVTF
T6 sequence: NVFRLKGGAPIKGVTF

[9] = system: Fluorogenic peptide substrate Abz-[…]-EDDNP
[10] = system: MHV 12-mer peptide substrate (P6-P1′ FSLKGGA)
[11] = system: T7, 9-mer oligopeptide FRLKGGAPI
T7 sequence: FRLKGGAPI

[12] = system: T8, 12-mer oligopeptide ISLKGGKIVSTC containing the Gly2740-Lys2741 cleavage site
T8 sequence: ISLKGGKIVSTC

[13] = system: T9, 8-mer oligopeptide LKGGAPIK
T9 sequence: LKGGAPIK

[14] = system: T10, 12-mer oligopeptide RELNGGAVTRYV containing the Gly180-Ala181 cleavage site
T10 sequence: RELNGGAVTRYV

RELNGGAVTRYV [Gly180-Ala181]
Cleavage % 12 hours (SARS-CoV PLP2): 5 ± 1% | percentage of the cleavage after 12 hours of digestion (SARS-CoV PLP2): 5%

SARS-CoV papain-like protease 2 (SARS-CoV PLP2), residues 1414-1858 of pp1a, N-terminal 6xHis tag
Cleavage %, 2 hours [1]: 60.5% | Cleavage %, 12 hours [1]: 100% | Cleavage %, 2 hours [2]: 14.8% | Cleavage %, 12 hours [2]: 56.4% | Cleavage %, 2 hours [3]: 67.6% | Cleavage %, 12 hours [3]: 100% | Cleavage %, 2 hours [4]: 49.9% | Cleavage %, 12 hours [4]: 100% | Cleavage %, 2 h [5]: 70.1% | Cleavage %, 2 hours [5]: 70% and 70.1% | Cleavage %, 12 h [5]: 100% | Cleavage %, 12 hours [5]: 100% | Cleavage %, 2 hours [6]: 52.9% | Cleavage %, 12 hours [6]: 100% | Cleavage %, 2 hours [7]: 27% | Cleavage %, 12 hours [7]: 85% | Cleavage %, 2 hours [8]: 63% | Cleavage %, 12 hours [8]: 100% | Kcat/Km (µM^-1min^-1) at pH 5.25 [9]: 0.06 µM^-1min^-1 | Kcat/Km (µM^-1min^-1) at pH 6.05 [9]: 0.17 µM^-1min^-1 | Kcat/Km (µM^-1min^-1) at pH 6.82 [9]: 0.31 µM^-1min^-1 | Kcat/Km (µM^-1min^-1) at pH 7.42 [9]: 0.27 µM^-1min^-1 | Kcat/Km (µM^-1min^-1) at pH 8.01 [9]: 0.3 µM^-1min^-1 | Kcat/Km (µM^-1min^-1) at pH 8.65 [9]: 0.3 µM^-1min^-1 | Kcat/Km (µM^-1min^-1) at pH 9.20 [9]: 0.21 µM^-1min^-1 | Kcat/Km (µM^-1min^-1) at pH 9.80 [9]: 0.08 µM^-1min^-1 | Km (µM) at pH 5.25 [9]: 21.4 µM | Km (µM) at pH 6.05 [9]: 64 µM | Km (µM) at pH 6.82 [9]: 65.5 µM | Km (µM) at pH 7.42 [9]: 77.2 µM | Km (µM) at pH 8.01 [9]: 72 µM | Km (µM) at pH 8.65 [9]: 71.5 µM | Km (µM) at pH 9.20 [9]: 68 µM | Km (µM) at pH 9.80 [9]: 70.5 µM | kcat (min^-1) at pH 5.25 [9]: 1.37 min^-1 | kcat (min^-1) at pH 6.05 [9]: 11.9 min^-1 | kcat (min^-1) at pH 6.82 [9]: 20.6 min^-1 | kcat (min^-1) at pH 7.42 [9]: 19.8 min^-1 | kcat (min^-1) at pH 8.01 [9]: 21.9 min^-1 | kcat (min^-1) at pH 8.65 [9]: 22 min^-1 | kcat (min^-1) at pH 9.20 [9]: 14.1 min^-1 | kcat (min^-1) at pH 9.80 [9]: 5.99 min^-1 | pH-independent kcat value (constant C from the pH-Log kcat plot) [9]: 25.4±3.43 min^-1 | pH-independent kcat/Km value (constant C from the pH-Log (kcat/Km) plot) [9]: 0.31±0.02 min^-1µM^-1 | true Km value [9]: corrected to 82 µM | Cleavage %, 2 hours [10]: 21% | Cleavage %, 12 hours [10]: 80% | Cleavage %, 2 hours [11]: 36.2% | Cleavage %, 12 hours [11]: 85.1% | Cleavage %, 2 hours [12]: 7% | Cleavage %, 12 hours [12]: 29% | Cleavage %, 2 hours [13]: 11.4% | Cleavage %, 12 hours [13]: 44.7% | Cleavage %, 12 hours [14]: 5%

— US20070160981A1 (priority 2005, published 2007)
